Here are results for 31 molecules from US20200407424A1 (FRAUNHOFER GESELLSCHAFT ZUR F RDERUNG DER ANGEWANDTEN …, published 2020).

Read-outs that look alike come from different tables or passages of the source. Square brackets hold non-standard residues; d marks the D form. Ends that are not written are not given here. Cit = NC(=O)NCCC[C@H](N)C(=O)O

Experiment [1] deals with T1, recombinant MHC class II protein of the HLA DRB1 1001 genotype (human).
T1 construct: construct not described
Briefly: in vitro binding assay.

Experiment [2] deals with T2, recombinant MHC class II protein of the HLA DRB1 0401 genotype (human).
T2 construct: construct not described; also called HLA-DR0401
Briefly: in vitro binding assay.

Experiment [3] addresses T3, recombinant MHC class II protein of the HLA DRB1 0404 genotype (human).
T3 construct: construct not described
The experiment can be described thus: in vitro binding assay.

Experiment [4] addresses T4, recombinant MHC class II protein of the HLA DRB1 0405 genotype (human).
T4 construct: construct not described
Briefly: in vitro binding assay.

For experiment [5], the target named is T2, recombinant MHC class II protein of the …. The experiment can be described thus: in vitro binding assay. This is another data set of the same source.
Experiment [6] deals with T5, recombinant MHC class II protein of the HLA DRB1 0101 genotype (human).
T5 construct: construct not described
The experiment can be described thus: in vitro binding assay.

Experiment [7] addresses T2, recombinant MHC class II protein of the …. Briefly: in vitro binding assay. This is another data set of the same source.
The target of experiment [8] is T1, recombinant MHC class II protein of the …. The experiment can be described thus: in vitro binding assay. The source holds these as a separate data set.
Experiment [9] concerns the target T5, recombinant MHC class II protein of the …. The experiment can be described thus: in vitro binding assay. This is another data set of the same source.
The target in experiment [10] is T6, recombinant MHC class II protein of the HLA DRB1 0408 genotype (human).
T6 construct: construct not described
Briefly: in vitro binding assay.

The target of experiment [11] is T3, recombinant MHC class II protein of the …. Briefly: in vitro binding assay. This is another data set of the same source.
Experiment [12] has as its target T4, recombinant MHC class II protein of the …. The experiment can be described thus: in vitro binding assay. The source holds these as a separate data set.
Experiment [13] deals with T6, recombinant MHC class II protein of the …. Briefly: in vitro binding assay. The source holds these as a separate data set.
The target of experiment [14] is T2, recombinant MHC class II protein of the …. Briefly: binds MHC in vitro.
The target of experiment [15] is T3, recombinant MHC class II protein of the …. The experiment can be described thus: in vitro binding assay. This is another data set of the same source.
The target of experiment [16] is T5, recombinant MHC class II protein of the …. Briefly: in vitro binding assay. This is another data set of the same source.

Regarding PQGPRGDKGEAGEPG [type II collagen peptide ref no 268], the binding result in [1] is recorded as “binds”.

Regarding GIVGLPGQ[Cit]GE[Cit]GFP [citrullinated type II collagen peptide ref no 411], the binding result in [2], in [3] and in [4] was “binds” each time.

As for RYMGKGVSKAVEHIN [corresponding non-citrullinated peptide of a-enolase peptide 297], the binding result is listed as “no binding” in experiment [5] and “binds” in experiment [6].

PSGFQGLPGPPGPPG [type II collagen peptide ref no 178]: the binding result in experiment [4] is recorded as “binds”.

For the molecule LLKVNQIGSVTESLQ [a-enolase peptide ref no 69], the binding result is “no binding” in experiment [7]; “no binding” in experiment [8]; “no binding” in [9]; “no binding” in experiment [10]; “no binding” in experiment [11]; “binds” in experiment [12].

Turning to QGP[Cit]GLPGTPGTDGP [citrullinated type II collagen peptide ref no 384], the binding result in experiment [1] and in experiment [13] was “binds” throughout.

Regarding GDRGETGAVGAPGAP [type II collagen peptide ref no 257], in [3], the binding result is on record as “binds”.

Take [Cit]GPPGPQGA[Cit]GFPGT [citrullinated type II collagen peptide ref no 332]: the binding result in [2], in experiment [3] and in [4] was “binds” throughout.

Regarding PGLQGMPGE[Cit]GAAGI [citrullinated type II collagen peptide ref no 386], the binding result in [2] and in experiment [3] was “binds” in each case.

For the molecule KRIAKAVNEKSCNCL [corresponding non-citrullinated peptide of a-enolase peptide 313], the binding result in experiment [5] and in experiment [6] was “binds” in each case.

Consider KRIAKAVNEKSCNCL [a-enolase peptide ref no 66], for which the binding result in experiment [14] was “binds”; in [8] it was “no binding”; in [9], “binds”; in [10], “binds”; in experiment [11], “binds”; in [12], “binds”.

For the molecule MSILKIHAREIFDSR [corresponding non-citrullinated peptide of a-enolase peptide 287], the binding result in experiment [5] is “no binding”; in experiment [6], “binds”; in [15], “binds”.

VMGFPGPKGANGEPG [type II collagen peptide ref no 166]: the binding result in experiment [3] was “binds”.

For the molecule GHRGFTGLQGLPGPP [type II collagen peptide ref no 272], the binding result in [4] is listed as “binds”.

For the molecule TSKGLF[Cit]AAVPSGAS [citrullinated a-enolase peptide ref no 291], the binding result in experiment [5] is “binds”; in [15], “binds”; in experiment [8] it was “binds”; in [9] it was “binds”; in experiment [10] it was “no binding”; in experiment [12], “binds”.

Turning to GIVGLPGQRGERGFP [corresponding non-citrullinated peptide of type II collagen peptide 411], the binding result in experiment [5] and in [15] was “binds” in each case.

As to GDRGEAGAQGPMGPS [type II collagen peptide ref no 263], the binding result in [1] is on record as “binds”.

As to PGLQGMPGERGAAGI [type II collagen peptide ref no 195], in experiment [3], the binding result is recorded as “binds”.

With ANFREAMRIGAEVYH [a-enolase peptide ref no 36], the binding result is “no binding” in experiment [7]; “no binding” in [8]; “binds” in experiment [9]; “no binding” in experiment [10]; “no binding” in experiment [11]; “binds” in [12].

On to GIVGLPGQRGERGFP [type II collagen peptide ref no 242], for which the binding result in experiment [2], in experiment [16], in experiment [3] and in experiment [4] was “binds” each time.

Regarding GEPGIAGFKGEQGPK [type II collagen peptide ref no 137], the binding result in experiment [2], in experiment [16] and in experiment [3] was “binds” throughout.

KEGLELLKTAIGKAG [a-enolase peptide ref no 45]: the binding result is “binds” in [7]; “no binding” in experiment [8]; “binds” in experiment [9]; “binds” in [10]; “binds” in [11]; “binds” in experiment [12].

As to PGLQGMPGERGAAGI [corresponding non-citrullinated peptide of type II collagen peptide 386], the binding result in [15] is “binds”.

For AGFKGEQGPKGEPGP [type II collagen peptide ref no 138], the binding result in experiment [2] and in experiment [16] was “binds” in each case.

Take LAGQRGIVGLPGQRG [type II collagen peptide ref no 241]: the results for the binding result in experiment [2], in experiment [3] and in experiment [4] were “no binding”, “binds” and “binds”, respectively.

Consider KGVPLY[Cit]HIADLAGN [citrullinated a-enolase peptide ref no 299], for which the binding result in [7] is recorded as “binds”; in experiment [8] it was “no binding”; in [9] it was “no binding”; in experiment [10] it was “binds”; in experiment [11], “no binding”; in experiment [12], “binds”.

On to APGN[Cit]GFPGQDGLAG [citrullinated type II collagen peptide ref no 357], for which, in experiment [1], the binding result is on record as “binds”.

B1: a-enolase peptide ref no 6 (peptide)
peptide: TSKGLFRAAVPSGAS
notes: also called corresponding non-citrinullated peptide of 291
Regarding B1, the binding result was “binds” in experiment [15]; “no binding” in experiment [7]; “no binding” in experiment [8]; “binds” in experiment [9]; “no binding” in experiment [10]; “binds” in [12].

For PQGARGFPGTPGLPG [type II collagen peptide ref no 100], the binding result in experiment [3] is listed as “binds”.

Regarding PKGANGDPG[Cit]PGEPG [citrullinated type II collagen peptide ref no 362], in experiment [1], the binding result is reported as “binds”.

As to GPPGATGFPGAAGRV [type II collagen peptide ref no 224], the binding result in experiment [3] is given as “binds”.
